Measured values: article PMC2172305

Target: Crk (UniProt P46108)
Assay: anti-Flag co-IP, anti-HA blot
Details: reference: cells infected with noninvasive Shigella; sites Y421,Y466,Y482

Substance: cortactin (from UniProt Q60598) cells infected with invasive Shigella
- fold change: stronger; reference 1
